Residue numbers refer to the chain shown, from its start.

Holding throughout (assay): cell_activity; CHO iGFFP reporter
One series deals with T1, LOX 3-4m.856 (artificial (I-CreI derived)).
T1 chain: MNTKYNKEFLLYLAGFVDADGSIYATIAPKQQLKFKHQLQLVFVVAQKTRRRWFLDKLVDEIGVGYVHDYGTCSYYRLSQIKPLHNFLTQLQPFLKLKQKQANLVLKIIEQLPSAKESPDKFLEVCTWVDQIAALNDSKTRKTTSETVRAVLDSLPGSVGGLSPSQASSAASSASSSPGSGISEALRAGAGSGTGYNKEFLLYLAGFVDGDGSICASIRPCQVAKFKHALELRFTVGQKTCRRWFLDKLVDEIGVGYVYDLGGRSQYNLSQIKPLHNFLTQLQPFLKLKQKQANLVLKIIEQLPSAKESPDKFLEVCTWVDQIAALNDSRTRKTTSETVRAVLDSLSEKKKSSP
From the text: (§1) A CHO cell reporter system (see WO/2012/167192, FIG. 3) was used to determine whether the engineered meganucleases generated in these studies could recognize and cleave the modified LOX 3-4 recognition sequences in Table 87. To perform the assay, a pair of CHO cell reporter lines were produced, which carried a non-functional Green Fluorescent Protein (GFP) gene expression cassette integrated into the genome of the cell. The GFP gene in each cell line was interrupted by a pair of recognition sequences such that intracellular cleavage of either recognition sequence by a meganuclease would stimulate a homologous recombination event resulting in a functional GFP gene. In both cell lines, one of the recognition sequences was derived from the LOX 3-4 recognition sequence (i.e., those sequences disclosed in Table 87), and the second recognition sequence was specifically recognized by a control meganuclease called “CHO 23/24.” CHO reporter cells comprising a recognition sequence derived from the LOX 3-4 recognition sequence and the CHO 23/24 recognition sequence are referred to herein as “test cells.”
(§2) Novel engineered meganucleases derived from the LOX 3-4x.109 meganuclease were prepared by making amino acid substitutions at one or more positions in the first subunit and one or more positions in the second subunit. In addition, two engineered meganucleases were generated that inserted an additional R residue following position 264, which corresponds to position 73 of wild-type I-CreI. These engineered meganucleases were then evaluated for cleavage of the LOX 3-4 recognition sequence modified to have an ACAG center sequence (SEQ ID NO: 34) in the CHO reporter assay according to Example 1.

The target of the next series is T2, LOX 3-4m.776 (artificial (I-CreI derived)).
T2 chain: T1 chain with F54L, G71R, T72Q, Q80E
Excerpt: as §1, §2

In another series the target is T3, LOX 3-4m.788 (artificial (I-CreI derived)).
T3 chain: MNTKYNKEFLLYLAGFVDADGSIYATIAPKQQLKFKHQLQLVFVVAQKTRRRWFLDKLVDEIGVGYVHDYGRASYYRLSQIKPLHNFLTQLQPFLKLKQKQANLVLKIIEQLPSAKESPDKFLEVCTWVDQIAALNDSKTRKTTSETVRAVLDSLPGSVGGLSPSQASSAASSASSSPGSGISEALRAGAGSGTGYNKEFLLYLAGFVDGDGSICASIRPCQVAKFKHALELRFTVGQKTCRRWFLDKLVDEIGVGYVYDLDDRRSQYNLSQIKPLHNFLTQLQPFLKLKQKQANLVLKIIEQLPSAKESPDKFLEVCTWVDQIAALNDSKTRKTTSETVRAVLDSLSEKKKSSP
Excerpt: as §1, §2

Another series concerns the target T4, LOX 3-4m.775 (artificial (I-CreI derived)).
T4 chain: T1 chain with F54I, T72K, C73A, Q80E, R330K
Excerpt: as §1, §2

The target of a further series is T5, LOX 3-4 m.201 (artificial (I-CreI derived)).
T5 chain: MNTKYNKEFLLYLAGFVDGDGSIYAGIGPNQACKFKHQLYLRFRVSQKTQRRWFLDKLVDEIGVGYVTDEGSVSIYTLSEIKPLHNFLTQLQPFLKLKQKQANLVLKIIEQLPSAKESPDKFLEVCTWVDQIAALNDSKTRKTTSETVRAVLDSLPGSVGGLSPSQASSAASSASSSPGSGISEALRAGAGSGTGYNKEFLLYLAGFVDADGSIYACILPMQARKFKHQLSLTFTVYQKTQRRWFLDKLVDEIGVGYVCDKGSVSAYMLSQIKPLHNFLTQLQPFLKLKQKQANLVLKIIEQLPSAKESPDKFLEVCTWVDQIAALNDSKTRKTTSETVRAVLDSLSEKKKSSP
Excerpt: as §1
(§3) Novel engineered meganucleases derived from the LOX 3-4x.109 meganuclease were prepared by making amino acid substitutions at one or more positions in the first subunit. These engineered meganucleases were then evaluated for cleavage of the LOX 3-4 recognition sequence modified to have a GTGG center sequence (SEQ ID NO: 496) in the CHO reporter assay according to Example 1. Novel meganucleases which were modified to comprise the residues recited in the tables below were capable of cleaving the LOX 3-4 recognition sequence having a GTGG four base pair center sequence.

In another series the target is T6, LOX 3-4 m.203 (artificial (I-CreI derived)).
T6 chain: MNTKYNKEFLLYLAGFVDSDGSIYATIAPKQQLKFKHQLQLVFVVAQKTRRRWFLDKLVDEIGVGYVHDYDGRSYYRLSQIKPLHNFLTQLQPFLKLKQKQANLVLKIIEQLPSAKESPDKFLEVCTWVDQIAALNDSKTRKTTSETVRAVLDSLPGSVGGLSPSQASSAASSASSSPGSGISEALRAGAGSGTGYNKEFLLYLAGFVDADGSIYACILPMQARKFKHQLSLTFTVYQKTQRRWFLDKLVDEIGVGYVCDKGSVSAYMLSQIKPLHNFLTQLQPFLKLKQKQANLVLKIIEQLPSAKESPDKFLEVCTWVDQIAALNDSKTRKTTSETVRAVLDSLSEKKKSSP
Excerpt: as §1, §3

The next series addresses T7, LOX 3-4 m.192 (artificial (I-CreI derived)).
T7 chain: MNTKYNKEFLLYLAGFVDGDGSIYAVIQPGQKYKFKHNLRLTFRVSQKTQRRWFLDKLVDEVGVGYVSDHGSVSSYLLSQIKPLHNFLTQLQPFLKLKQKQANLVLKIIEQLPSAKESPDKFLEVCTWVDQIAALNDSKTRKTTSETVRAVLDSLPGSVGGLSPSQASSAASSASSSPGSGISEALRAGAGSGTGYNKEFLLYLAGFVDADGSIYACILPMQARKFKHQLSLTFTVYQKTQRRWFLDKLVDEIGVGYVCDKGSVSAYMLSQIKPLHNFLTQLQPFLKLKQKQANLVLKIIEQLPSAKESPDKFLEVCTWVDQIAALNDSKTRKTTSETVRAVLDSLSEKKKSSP
Excerpt: as §1, §3

The next series deals with T8, LOX 3-4 m.181 (artificial (I-CreI derived)).
T8 chain: T1 chain with A19S, K48S, G71R, T72N, K139T, C241Q, G263S, R264V, N268T, R330K
Excerpt: as §1
(§4) Novel engineered meganucleases derived from the LOX 3-4x.109 meganuclease were prepared by making amino acid substitutions at one or more positions in the first subunit. These engineered meganucleases were then evaluated for cleavage of the LOX 3-4 recognition sequence modified to have a GTGC center sequence (SEQ ID NO: 463) in the CHO reporter assay according to Example 1. Novel meganucleases which were modified to comprise the residues recited in the tables below were capable of cleaving the LOX 3-4 recognition sequence having a GTGC four base pair center sequence.

A further series deals with T9, LOX 3-4 m.186 (artificial (I-CreI derived)).
T9 chain: T1 chain with A19S, R50S, G71S, T72K, C73T, C241Q, G263S, R264V, N268T, R330K
Excerpt: as §1, §4

In another series the target is T10, LOX 3-4 m.180 (artificial (I-CreI derived)).
T10 chain: T1 chain with K48R, R50I, T72A, C73V, C241Q, G263S, R264V, N268T, R330K
Excerpt: as §1, §4

B1: LOX 3-4 ACAG (dsDNA)
DNA 1: GTATAGCATACAGTATACGAAG
DNA 2: CTTCGTATACTGTATGCTATAC
Regarding B1, the activity with LOX 3-4m.856 was found to be 10.8 % GFP; with LOX 3-4m.776, 10.4 % GFP; with LOX 3-4m.788 it was 10.5 % GFP; with LOX 3-4m.775, 12.2 % GFP.

B2: LOX 3-4 GTGG (dsDNA)
DNA 1: GTATAGCATGTGGTATACGAAG
DNA 2: CTTCGTATACCACATGCTATAC
Turning to B2, the results for the activity in the series with LOX 3-4 m.201, with LOX 3-4 m.203 and with LOX 3-4 m.192 were 11 % GFP, 12.1 % GFP and 11.9 % GFP, respectively.

B3: LOX 3-4 GTGC (dsDNA)
DNA 1: GTATAGCATGTGCTATACGAAG
DNA 2: CTTCGTATAGCACATGCTATAC
For the molecule B3, the activity with LOX 3-4 m.181 worked out at 13.8 % GFP; with LOX 3-4 m.186, 13.4 % GFP; in the series with LOX 3-4 m.180, 13.7 % GFP.

The record behind these values is patent US20220195407, “OPTIMIZATION OF ENGINEERED MEGANUCLEASES FOR RECOGNITION SEQUENCES” (Precision BioSciences, Inc., published 2022).
